In the supplement of paper PMC9876800:

test system: peptide library, one residue held at a place counted from the S/T acceptor; test: relative phosphorylation of the sub-library (ratio to the mean residue at this position); human; higher = residue favoured; settings: M fixed; at -1
Procedure, shortened: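 Relative sub-library phosphorylation is the ratio of each sub-library's signal to the mean residue at that position. The signal came from phosphorimaging of spots on streptavidin membranes, quantified by densitometry, after purified recombinant kinases reacted with biotinylated degenerate peptide sub-libraries in 384-well plates. Reactions held 50 μM peptide and 50 μM ATP spiked with γ-32P-ATP for 90 min under kinase-specific conditions.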

Chain of EIF2AK1, construct: Full length (Q9BQI3 whole entry, looked up): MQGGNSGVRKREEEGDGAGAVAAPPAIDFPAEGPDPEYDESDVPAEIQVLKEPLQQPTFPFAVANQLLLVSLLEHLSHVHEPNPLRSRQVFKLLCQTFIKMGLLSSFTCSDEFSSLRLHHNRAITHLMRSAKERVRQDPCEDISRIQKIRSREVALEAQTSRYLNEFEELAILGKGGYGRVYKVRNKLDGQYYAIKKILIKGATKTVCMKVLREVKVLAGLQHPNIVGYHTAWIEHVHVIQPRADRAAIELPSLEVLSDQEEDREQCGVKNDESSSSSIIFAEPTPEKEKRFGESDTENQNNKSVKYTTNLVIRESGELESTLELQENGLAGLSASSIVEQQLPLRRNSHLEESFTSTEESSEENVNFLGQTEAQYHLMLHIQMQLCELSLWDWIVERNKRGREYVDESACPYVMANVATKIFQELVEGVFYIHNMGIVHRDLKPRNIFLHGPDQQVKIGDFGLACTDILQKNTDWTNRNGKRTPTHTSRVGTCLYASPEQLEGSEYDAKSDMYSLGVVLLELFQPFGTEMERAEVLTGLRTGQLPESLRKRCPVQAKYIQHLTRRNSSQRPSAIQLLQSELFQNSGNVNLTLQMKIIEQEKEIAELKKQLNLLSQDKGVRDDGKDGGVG
Chain of MOK, construct: aa1-343 (Q9UQ07 1-343, looked up): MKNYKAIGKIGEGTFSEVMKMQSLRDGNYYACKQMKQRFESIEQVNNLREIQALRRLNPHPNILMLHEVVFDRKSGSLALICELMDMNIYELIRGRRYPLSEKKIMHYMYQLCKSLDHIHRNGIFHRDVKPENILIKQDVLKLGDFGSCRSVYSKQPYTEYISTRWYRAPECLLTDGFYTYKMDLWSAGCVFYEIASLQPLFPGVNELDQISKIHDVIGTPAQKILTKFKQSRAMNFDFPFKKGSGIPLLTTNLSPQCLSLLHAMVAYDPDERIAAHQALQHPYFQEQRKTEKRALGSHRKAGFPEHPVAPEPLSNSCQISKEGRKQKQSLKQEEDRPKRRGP
Chain of MAP4K3, construct: aa1-380 (Q8IVH8 1-380, looked up): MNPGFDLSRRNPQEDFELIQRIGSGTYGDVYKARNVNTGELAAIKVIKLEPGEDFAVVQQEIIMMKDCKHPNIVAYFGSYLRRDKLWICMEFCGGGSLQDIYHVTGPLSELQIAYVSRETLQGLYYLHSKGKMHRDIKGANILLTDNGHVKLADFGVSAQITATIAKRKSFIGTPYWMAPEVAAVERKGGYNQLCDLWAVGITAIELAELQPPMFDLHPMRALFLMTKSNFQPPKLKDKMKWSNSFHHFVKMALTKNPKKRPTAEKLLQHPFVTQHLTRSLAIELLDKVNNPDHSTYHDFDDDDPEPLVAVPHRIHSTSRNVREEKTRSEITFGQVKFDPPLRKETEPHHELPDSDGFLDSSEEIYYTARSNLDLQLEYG
Chain of CHEK2, construct: Full length (O96017 whole entry, looked up, the tested form may be a part): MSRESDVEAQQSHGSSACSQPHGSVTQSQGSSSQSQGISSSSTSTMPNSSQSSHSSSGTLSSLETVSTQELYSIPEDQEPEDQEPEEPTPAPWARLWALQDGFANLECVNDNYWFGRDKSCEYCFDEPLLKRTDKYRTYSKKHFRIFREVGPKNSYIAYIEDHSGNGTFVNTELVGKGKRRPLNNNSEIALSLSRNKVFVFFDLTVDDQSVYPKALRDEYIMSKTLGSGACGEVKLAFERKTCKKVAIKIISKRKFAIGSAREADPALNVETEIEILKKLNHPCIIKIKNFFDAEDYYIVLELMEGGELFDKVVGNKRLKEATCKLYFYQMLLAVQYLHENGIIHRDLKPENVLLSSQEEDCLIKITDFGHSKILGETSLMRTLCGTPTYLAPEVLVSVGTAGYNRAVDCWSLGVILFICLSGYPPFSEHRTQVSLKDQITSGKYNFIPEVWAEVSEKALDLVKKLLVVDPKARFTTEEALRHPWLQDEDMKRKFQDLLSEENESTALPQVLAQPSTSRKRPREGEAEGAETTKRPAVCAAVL
Chain of MAP3K10, construct: aa1-449 (Q02779 1-449, looked up): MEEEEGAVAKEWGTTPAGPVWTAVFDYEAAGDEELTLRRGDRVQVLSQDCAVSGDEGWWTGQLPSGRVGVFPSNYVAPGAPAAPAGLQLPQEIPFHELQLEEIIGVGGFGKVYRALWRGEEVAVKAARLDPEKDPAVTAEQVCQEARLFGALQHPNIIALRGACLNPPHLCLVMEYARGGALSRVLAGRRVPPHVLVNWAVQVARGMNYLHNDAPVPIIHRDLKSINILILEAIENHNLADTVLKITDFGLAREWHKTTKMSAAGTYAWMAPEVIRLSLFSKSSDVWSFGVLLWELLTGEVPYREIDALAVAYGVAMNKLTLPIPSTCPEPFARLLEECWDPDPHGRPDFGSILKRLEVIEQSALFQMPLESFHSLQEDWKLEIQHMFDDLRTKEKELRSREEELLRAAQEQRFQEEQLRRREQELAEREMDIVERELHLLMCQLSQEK
Chain of CAMK1, construct: Full length (Q14012 whole entry, looked up, the tested form may be a part): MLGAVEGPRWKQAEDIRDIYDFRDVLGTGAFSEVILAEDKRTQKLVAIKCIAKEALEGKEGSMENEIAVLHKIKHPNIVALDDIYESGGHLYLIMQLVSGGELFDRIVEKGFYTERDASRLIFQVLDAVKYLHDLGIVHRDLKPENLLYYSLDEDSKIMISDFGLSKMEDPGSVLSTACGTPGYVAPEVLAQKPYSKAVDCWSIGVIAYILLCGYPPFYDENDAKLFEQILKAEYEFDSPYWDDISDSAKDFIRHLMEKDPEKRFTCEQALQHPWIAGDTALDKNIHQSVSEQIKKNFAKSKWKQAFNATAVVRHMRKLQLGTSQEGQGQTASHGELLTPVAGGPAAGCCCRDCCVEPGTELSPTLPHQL
Chain of TTBK1, construct: Full length (Q5TCY1 whole entry, looked up): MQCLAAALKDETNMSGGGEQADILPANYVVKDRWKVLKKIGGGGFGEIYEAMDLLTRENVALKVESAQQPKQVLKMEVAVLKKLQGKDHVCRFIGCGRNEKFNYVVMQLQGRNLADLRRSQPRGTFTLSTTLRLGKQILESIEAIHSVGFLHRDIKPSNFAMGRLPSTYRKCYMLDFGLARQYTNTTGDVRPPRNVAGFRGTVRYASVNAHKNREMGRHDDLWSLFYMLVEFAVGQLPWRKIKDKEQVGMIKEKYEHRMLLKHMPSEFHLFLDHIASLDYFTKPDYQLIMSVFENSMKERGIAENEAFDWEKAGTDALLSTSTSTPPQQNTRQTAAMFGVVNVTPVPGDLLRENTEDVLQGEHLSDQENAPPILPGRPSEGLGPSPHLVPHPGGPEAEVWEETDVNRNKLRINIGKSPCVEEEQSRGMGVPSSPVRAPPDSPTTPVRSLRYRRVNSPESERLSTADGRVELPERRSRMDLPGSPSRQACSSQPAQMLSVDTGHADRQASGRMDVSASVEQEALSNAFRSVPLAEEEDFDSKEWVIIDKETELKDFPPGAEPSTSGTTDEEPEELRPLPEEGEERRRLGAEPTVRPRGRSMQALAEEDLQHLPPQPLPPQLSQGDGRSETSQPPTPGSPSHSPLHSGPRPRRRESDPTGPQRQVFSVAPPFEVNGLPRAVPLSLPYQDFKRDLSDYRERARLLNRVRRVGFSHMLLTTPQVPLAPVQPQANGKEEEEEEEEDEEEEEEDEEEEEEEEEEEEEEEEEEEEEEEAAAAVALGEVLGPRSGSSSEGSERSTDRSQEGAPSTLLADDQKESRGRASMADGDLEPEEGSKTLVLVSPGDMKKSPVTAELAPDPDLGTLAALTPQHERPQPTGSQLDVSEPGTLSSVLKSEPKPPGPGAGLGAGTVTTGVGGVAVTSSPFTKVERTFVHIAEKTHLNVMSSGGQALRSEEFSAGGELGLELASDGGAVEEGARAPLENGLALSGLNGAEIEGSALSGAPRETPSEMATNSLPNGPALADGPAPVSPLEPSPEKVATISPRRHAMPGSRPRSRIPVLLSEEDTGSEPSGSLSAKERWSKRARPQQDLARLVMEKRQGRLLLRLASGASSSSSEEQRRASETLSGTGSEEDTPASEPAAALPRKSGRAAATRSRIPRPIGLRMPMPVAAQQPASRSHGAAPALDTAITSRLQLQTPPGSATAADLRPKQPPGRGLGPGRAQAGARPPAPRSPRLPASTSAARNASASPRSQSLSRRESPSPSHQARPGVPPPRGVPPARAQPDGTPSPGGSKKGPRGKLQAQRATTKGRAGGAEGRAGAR

First: CAMK1, construct: Full length (from UniProt Q14012)
Second: MAP3K10, construct: aa1-449 (from UniProt Q02779)
The relative phosphorylation of the first is lower: 1.01 for the first, 1.14 for the second.

First: EIF2AK1, construct: Full length (from UniProt Q9BQI3)
Second: PKN3, construct: Full length (from UniProt Q6P5Z2)
The relative phosphorylation of the first is higher: 1.16 for the first, 0.854 for the second.

same assay, conditions: M fixed; at -2

Compared with “MOK, construct: aa1-343 (from UniProt Q9UQ07)”, “TTBK1, construct: Full length (from UniProt Q5TCY1)” is higher in relative phosphorylation: 0.675 for the first, 1.23 for the second.

First: CHEK2, construct: Full length (from UniProt O96017)
Second: MAP4K3, construct: aa1-380 (from UniProt Q8IVH8)
The relative phosphorylation of the first is higher: 1.37 for the first, 0.687 for the second.

First: CAMK1, construct: Full length (from UniProt Q14012)
Second: MAP3K10, construct: aa1-449 (from UniProt Q02779)
The relative phosphorylation of the first is higher: 1.33 for the first, 1.3 for the second.

Going from “EIF2AK1, construct: Full length (from UniProt Q9BQI3)” to “PKN3, construct: Full length (from UniProt Q6P5Z2)”, the relative phosphorylation rises from 0.726 to 0.771.

same assay, conditions: M fixed; at -3

First: MOK, construct: aa1-343 (from UniProt Q9UQ07)
Second: TTBK1, construct: Full length (from UniProt Q5TCY1)
The relative phosphorylation of the first is lower: 0.501 for the first, 1.04 for the second.

Going from “CHEK2, construct: Full length (from UniProt O96017)” to “MAP4K3, construct: aa1-380 (from UniProt Q8IVH8)”, the relative phosphorylation rises from 0.256 to 0.651.

Going from “CAMK1, construct: Full length (from UniProt Q14012)” to “MAP3K10, construct: aa1-449 (from UniProt Q02779)”, the relative phosphorylation rises from 0.252 to 0.821.

Compared with “EIF2AK1, construct: Full length (from UniProt Q9BQI3)”, “PKN3, construct: Full length (from UniProt Q6P5Z2)” is lower in relative phosphorylation: 1.29 for the first, 1.28 for the second.

same assay, conditions: M fixed; at -4

Going from “MOK, construct: aa1-343 (from UniProt Q9UQ07)” to “TTBK1, construct: Full length (from UniProt Q5TCY1)”, the relative phosphorylation falls from 0.946 to 0.933.

Compared with “CHEK2, construct: Full length (from UniProt O96017)”, “MAP4K3, construct: aa1-380 (from UniProt Q8IVH8)” is lower in relative phosphorylation: 1.17 for the first, 0.869 for the second.

Going from “CAMK1, construct: Full length (from UniProt Q14012)” to “MAP3K10, construct: aa1-449 (from UniProt Q02779)”, the relative phosphorylation falls from 1.13 to 0.879.

“EIF2AK1, construct: Full length (from UniProt Q9BQI3)” and “PKN3, construct: Full length (from UniProt Q6P5Z2)” are the same in relative phosphorylation: 1.07 for the first, 1.07 for the second.

same assay, conditions: M fixed; at -5

First: MOK, construct: aa1-343 (from UniProt Q9UQ07)
Second: TTBK1, construct: Full length (from UniProt Q5TCY1)
The relative phosphorylation of the first is higher: 0.903 for the first, 0.79 for the second.

Going from “CHEK2, construct: Full length (from UniProt O96017)” to “MAP4K3, construct: aa1-380 (from UniProt Q8IVH8)”, the relative phosphorylation falls from 1.55 to 0.862.

Going from “CAMK1, construct: Full length (from UniProt Q14012)” to “MAP3K10, construct: aa1-449 (from UniProt Q02779)”, the relative phosphorylation falls from 1.39 to 0.725.

Going from “EIF2AK1, construct: Full length (from UniProt Q9BQI3)” to “PKN3, construct: Full length (from UniProt Q6P5Z2)”, the relative phosphorylation falls from 1.04 to 0.97.

same assay, conditions: N fixed; at +1

First: MOK, construct: aa1-343 (from UniProt Q9UQ07)
Second: TTBK1, construct: Full length (from UniProt Q5TCY1)
The relative phosphorylation of the first is higher: 0.32 for the first, 0.221 for the second.

Going from “CHEK2, construct: Full length (from UniProt O96017)” to “MAP4K3, construct: aa1-380 (from UniProt Q8IVH8)”, the relative phosphorylation falls from 0.93 to 0.632.

Going from “CAMK1, construct: Full length (from UniProt Q14012)” to “MAP3K10, construct: aa1-449 (from UniProt Q02779)”, the relative phosphorylation falls from 1.13 to 0.977.

First: EIF2AK1, construct: Full length (from UniProt Q9BQI3)
Second: PKN3, construct: Full length (from UniProt Q6P5Z2)
The relative phosphorylation of the first is higher: 0.991 for the first, 0.78 for the second.

same assay, conditions: N fixed; at +2

Compared with “MOK, construct: aa1-343 (from UniProt Q9UQ07)”, “TTBK1, construct: Full length (from UniProt Q5TCY1)” is lower in relative phosphorylation: 0.999 for the first, 0.394 for the second.

First: CHEK2, construct: Full length (from UniProt O96017)
Second: MAP4K3, construct: aa1-380 (from UniProt Q8IVH8)
The relative phosphorylation of the first is lower: 0.941 for the first, 1.11 for the second.

First: CAMK1, construct: Full length (from UniProt Q14012)
Second: MAP3K10, construct: aa1-449 (from UniProt Q02779)
The relative phosphorylation of the first is higher: 1.18 for the first, 1.07 for the second.

First: EIF2AK1, construct: Full length (from UniProt Q9BQI3)
Second: PKN3, construct: Full length (from UniProt Q6P5Z2)
The relative phosphorylation of the first is lower: 1.12 for the first, 1.17 for the second.

same assay, conditions: N fixed; at +3

Going from “MOK, construct: aa1-343 (from UniProt Q9UQ07)” to “TTBK1, construct: Full length (from UniProt Q5TCY1)”, the relative phosphorylation falls from 0.93 to 0.472.

First: CHEK2, construct: Full length (from UniProt O96017)
Second: MAP4K3, construct: aa1-380 (from UniProt Q8IVH8)
The relative phosphorylation of the first is higher: 0.889 for the first, 0.868 for the second.

First: CAMK1, construct: Full length (from UniProt Q14012)
Second: MAP3K10, construct: aa1-449 (from UniProt Q02779)
The relative phosphorylation of the first is higher: 1.64 for the first, 1.06 for the second.

Going from “EIF2AK1, construct: Full length (from UniProt Q9BQI3)” to “PKN3, construct: Full length (from UniProt Q6P5Z2)”, the relative phosphorylation rises from 0.808 to 1.

same assay, conditions: N fixed; at +4

Compared with “MOK, construct: aa1-343 (from UniProt Q9UQ07)”, “TTBK1, construct: Full length (from UniProt Q5TCY1)” is lower in relative phosphorylation: 1.06 for the first, 0.8 for the second.

Compared with “CHEK2, construct: Full length (from UniProt O96017)”, “MAP4K3, construct: aa1-380 (from UniProt Q8IVH8)” is lower in relative phosphorylation: 1.14 for the first, 1.05 for the second.

Compared with “CAMK1, construct: Full length (from UniProt Q14012)”, “MAP3K10, construct: aa1-449 (from UniProt Q02779)” is lower in relative phosphorylation: 1.07 for the first, 1.06 for the second.

Compared with “EIF2AK1, construct: Full length (from UniProt Q9BQI3)”, “PKN3, construct: Full length (from UniProt Q6P5Z2)” is higher in relative phosphorylation: 0.964 for the first, 1.19 for the second.

same assay, conditions: N fixed; at -1

Compared with “MOK, construct: aa1-343 (from UniProt Q9UQ07)”, “TTBK1, construct: Full length (from UniProt Q5TCY1)” is lower in relative phosphorylation: 0.672 for the first, 0.562 for the second.

Going from “CHEK2, construct: Full length (from UniProt O96017)” to “MAP4K3, construct: aa1-380 (from UniProt Q8IVH8)”, the relative phosphorylation falls from 1.61 to 1.54.

Compared with “CAMK1, construct: Full length (from UniProt Q14012)”, “MAP3K10, construct: aa1-449 (from UniProt Q02779)” is lower in relative phosphorylation: 2.03 for the first, 1.23 for the second.

Compared with “EIF2AK1, construct: Full length (from UniProt Q9BQI3)”, “PKN3, construct: Full length (from UniProt Q6P5Z2)” is higher in relative phosphorylation: 1.14 for the first, 1.48 for the second.

same assay, conditions: N fixed; at -2

First: MOK, construct: aa1-343 (from UniProt Q9UQ07)
Second: TTBK1, construct: Full length (from UniProt Q5TCY1)
The relative phosphorylation of the first is lower: 0.498 for the first, 0.773 for the second.

Going from “CHEK2, construct: Full length (from UniProt O96017)” to “MAP4K3, construct: aa1-380 (from UniProt Q8IVH8)”, the relative phosphorylation rises from 0.832 to 1.16.

Compared with “CAMK1, construct: Full length (from UniProt Q14012)”, “MAP3K10, construct: aa1-449 (from UniProt Q02779)” is higher in relative phosphorylation: 0.856 for the first, 1.08 for the second.

Compared with “EIF2AK1, construct: Full length (from UniProt Q9BQI3)”, “PKN3, construct: Full length (from UniProt Q6P5Z2)” is higher in relative phosphorylation: 0.783 for the first, 1.33 for the second.

same assay, conditions: N fixed; at -3

“MOK, construct: aa1-343 (from UniProt Q9UQ07)” was tested, and the relative phosphorylation was 0.452.
